Measurements from paper PMC10681739, “High-throughput data and modeling reveal insights into the mechanisms of cooperative DNA-binding by transcription factor proteins”.

Biological target: RUNX1 (Homo sapiens, UniProt Q01196)
Assay: gcPBM; 2 nM RUNX1
Conditions: tags: N-terminal GST (pDEST15), kept (PMC6008103); label: surface-attached array probe

RUNX1, sequence (Q01196 whole entry): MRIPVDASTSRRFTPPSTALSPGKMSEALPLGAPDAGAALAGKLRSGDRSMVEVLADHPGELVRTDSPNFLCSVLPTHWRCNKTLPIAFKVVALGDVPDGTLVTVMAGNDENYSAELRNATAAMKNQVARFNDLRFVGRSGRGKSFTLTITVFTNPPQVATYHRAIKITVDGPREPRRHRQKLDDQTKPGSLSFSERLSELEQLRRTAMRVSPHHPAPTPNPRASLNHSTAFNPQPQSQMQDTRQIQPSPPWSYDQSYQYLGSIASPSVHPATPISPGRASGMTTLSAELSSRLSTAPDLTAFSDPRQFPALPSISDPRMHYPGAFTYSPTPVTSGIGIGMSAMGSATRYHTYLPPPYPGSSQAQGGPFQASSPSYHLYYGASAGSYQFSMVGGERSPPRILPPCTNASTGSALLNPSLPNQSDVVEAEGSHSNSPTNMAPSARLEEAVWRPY

Binder | binding signal
Table S3 C row 57 (dsDNA) DNA 1: TTCATTGTTAGGGAACATCCGGGCCTGTCCCCTCCC DNA 2: GGGAGGGGACAGGCCCGGATGTTCCCTAACAATGAA | 752 PBM fluorescence, median of replicate spots
Table S3 C row 150 (dsDNA) DNA 1: TCTGAACTCTGACAACTTCCTGTCGCTCTGAGTGTG DNA 2: CACACTCAGAGCGACAGGAAGTTGTCAGAGTTCAGA | 757 PBM fluorescence, median of replicate spots
Table S3 C row 108 (dsDNA) DNA 1: TCTGCCCTCCCAGCACTTCCGGGCTGGCAGAAGAGC DNA 2: GCTCTTCTGCCAGCCCGGAAGTGCTGGGAGGGCAGA | 763 PBM fluorescence, median of replicate spots
Table S3 C row 15 (dsDNA) DNA 1: CAGCCAGCCCTCGCACGGAAGCGAACTTGCTGTCAC DNA 2: GTGACAGCAAGTTCGCTTCCGTGCGAGGGCTGGCTG | 769 PBM fluorescence, median of replicate spots
Table S3 C row 53 (dsDNA) DNA 1: GCTGGGACGCCAGACCTTCCGGGTTGCCCGGCCCCG DNA 2: CGGGGCCGGGCAACCCGGAAGGTCTGGCGTCCCAGC | 748 PBM fluorescence, median of replicate spots
Table S3 C row 107 (dsDNA) DNA 1: CTCGAGCCCGCTCGGCTTCCGTAGCCCCGCCCCATC DNA 2: GATGGGGCGGGGCTACGGAAGCCGAGCGGGCTCGAG | 743 PBM fluorescence, median of replicate spots
Table S3 C row 160 (dsDNA) DNA 1: ACCCCGTAGCCGGCGCTTCCTGCCGAGGCTGGGGTC DNA 2: GACCCCAGCCTCGGCAGGAAGCGCCGGCTACGGGGT | 766 PBM fluorescence, median of replicate spots
Table S3 C row 179 (dsDNA) DNA 1: CACAAGCGAAACATTCGGAAGCAATTTACTTGCAGC DNA 2: GCTGCAAGTAAATTGCTTCCGAATGTTTCGCTTGTG | 751 PBM fluorescence, median of replicate spots
Table S3 C row 49 (dsDNA) DNA 1: TGGGACTGACTGAGTCTTCCGTGTGTCGCCGCCGTT DNA 2: AACGGCGGCGACACACGGAAGACTCAGTCAGTCCCA | 756 PBM fluorescence, median of replicate spots
Table S3 C row 75 (dsDNA) DNA 1: GGAGCTCACCTTCCAGTTCCGGGAGGCAGGCCGGCC DNA 2: GGCCGGCCTGCCTCCCGGAACTGGAAGGTGAGCTCC | 740 PBM fluorescence, median of replicate spots
Table S3 C row 93 (dsDNA) DNA 1: TCCTTCCCTGGCAACAGGAAGTGAAAATGCCAGGCC DNA 2: GGCCTGGCATTTTCACTTCCTGTTGCCAGGGAAGGA | 766 PBM fluorescence, median of replicate spots
Table S3 C row 153 (dsDNA) DNA 1: CCGCCTTCAGGGCGGCGGAAGTCGCTGGCTGCTCTT DNA 2: AAGAGCAGCCAGCGACTTCCGCCGCCCTGAAGGCGG | 759 PBM fluorescence, median of replicate spots
Table S3 C row 154 (dsDNA) DNA 1: CCGGCTCATCTGGTATTTCCTGAGCACCTGCGACGT DNA 2: ACGTCGCAGGTGCTCAGGAAATACCAGATGAGCCGG | 757 PBM fluorescence, median of replicate spots
Table S3 C row 24 (dsDNA) DNA 1: CCCACGCTCTGCGTGCTTCCGGCGAGCAAAGCCCCG DNA 2: CGGGGCTTTGCTCGCCGGAAGCACGCAGAGCGTGGG | 766 PBM fluorescence, median of replicate spots
Table S3 C row 193 (dsDNA) DNA 1: CCGACCCCGCTGCCCCGGAAGGTGAGGCAAGCCTGG DNA 2: CCAGGCTTGCCTCACCTTCCGGGGCAGCGGGGTCGG | 761 PBM fluorescence, median of replicate spots
Table S3 C row 54 (dsDNA) DNA 1: CAGACCCCGTGGGGCAGGAAGCTGCTGGGGTAGGCC DNA 2: GGCCTACCCCAGCAGCTTCCTGCCCCACGGGGTCTG | 758 PBM fluorescence, median of replicate spots

Binder | binding signal
Table S3 C row 192 (dsDNA) DNA 1: CCGCGCAAGCCCCGACATCCGGTTGGCCGGCGTGGG DNA 2: CCCACGCCGGCCAACCGGATGTCGGGGCTTGCGCGG | 751 PBM fluorescence, median of replicate spots
Table S3 C row 127 (dsDNA) DNA 1: CTCCGAACTTAGGACAGGAAGAAACAGGCACATTTC DNA 2: GAAATGTGCCTGTTTCTTCCTGTCCTAAGTTCGGAG | 751 PBM fluorescence, median of replicate spots
Table S3 C row 25 (dsDNA) DNA 1: CTCCAGGGGTGTCACCGGAAAAAGCCGTTTCTGGAG DNA 2: CTCCAGAAACGGCTTTTTCCGGTGACACCCCTGGAG | 765 PBM fluorescence, median of replicate spots
Table S3 C row 124 (dsDNA) DNA 1: ACTTGGGGCATGCAATTTCCGGCAGCACAGAAAACA DNA 2: TGTTTTCTGTGCTGCCGGAAATTGCATGCCCCAAGT | 766 PBM fluorescence, median of replicate spots
Table S3 C row 110 (dsDNA) DNA 1: AGCTTATCATCGTCACGGAAGCCCCGCCAGGTGGCG DNA 2: CGCCACCTGGCGGGGCTTCCGTGACGATGATAAGCT | 759 PBM fluorescence, median of replicate spots
Table S3 C row 50 (dsDNA) DNA 1: GCGTGACAGAATGTGCTTCCGCTTGCGCCTCTGAGC DNA 2: GCTCAGAGGCGCAAGCGGAAGCACATTCTGTCACGC | 755 PBM fluorescence, median of replicate spots
Table S3 C row 82 (dsDNA) DNA 1: TGATGGGGATCGGTCCGGATGTACTTCAACATCTTT DNA 2: AAAGATGTTGAAGTACATCCGGACCGATCCCCATCA | 747 PBM fluorescence, median of replicate spots
Table S3 C row 89 (dsDNA) DNA 1: AGCACAGCTTCGGGCCGGAATCACGATCCACCAGAC DNA 2: GTCTGGTGGATCGTGATTCCGGCCCGAAGCTGTGCT | 755 PBM fluorescence, median of replicate spots
Table S3 C row 98 (dsDNA) DNA 1: TCGGCGGGGCTGTACCGGAAGTTGCCTCTACTTCTG DNA 2: CAGAAGTAGAGGCAACTTCCGGTACAGCCCCGCCGA | 759 PBM fluorescence, median of replicate spots
Table S3 C row 22 (dsDNA) DNA 1: CCGGATTGCCTTCACAGGAAGGGAAAGTCACTCCGG DNA 2: CCGGAGTGACTTTCCCTTCCTGTGAAGGCAATCCGG | 737 PBM fluorescence, median of replicate spots
Table S3 C row 36 (dsDNA) DNA 1: GGACGGCCTCTGAAGCTTCCGCGCCGACTTCTCCGA DNA 2: TCGGAGAAGTCGGCGCGGAAGCTTCAGAGGCCGTCC | 741 PBM fluorescence, median of replicate spots
Table S3 C row 9 (dsDNA) DNA 1: CGTGACGCAGGGAAAGTTCCGGCTTCGGCCTCCGCC DNA 2: GGCGGAGGCCGAAGCCGGAACTTTCCCTGCGTCACG | 736 PBM fluorescence, median of replicate spots
Table S3 C row 41 (dsDNA) DNA 1: CAGACTCGGCGTCGGCTTCCGGCGGCGTCAGAGACG DNA 2: CGTCTCTGACGCCGCCGGAAGCCGACGCCGAGTCTG | 762 PBM fluorescence, median of replicate spots
Table S3 C row 23 (dsDNA) DNA 1: CCCAGCCGGCCTGGACATCCGCCCCGCGCGCGGCGT DNA 2: ACGCCGCGCGCGGGGCGGATGTCCAGGCCGGCTGGG | 759 PBM fluorescence, median of replicate spots
Table S3 C row 161 (dsDNA) DNA 1: CTATCCCAGGCCTCGCTTCCGGTGACATCATGTCTC DNA 2: GAGACATGATGTCACCGGAAGCGAGGCCTGGGATAG | 749 PBM fluorescence, median of replicate spots
Table S3 C row 77 (dsDNA) DNA 1: TCGGGCCGGGAGCCGGTTCCGGCTGAGTCGGCAGGG DNA 2: CCCTGCCGACTCAGCCGGAACCGGCTCCCGGCCCGA | 765 PBM fluorescence, median of replicate spots
